Data taken from patent publication US20250206818A1 (AGENUS, published 2025).

T1: recombinant human LAG-3 (human, UniProt P18627 23-450, limits assumed)
T1 sequence (looked up): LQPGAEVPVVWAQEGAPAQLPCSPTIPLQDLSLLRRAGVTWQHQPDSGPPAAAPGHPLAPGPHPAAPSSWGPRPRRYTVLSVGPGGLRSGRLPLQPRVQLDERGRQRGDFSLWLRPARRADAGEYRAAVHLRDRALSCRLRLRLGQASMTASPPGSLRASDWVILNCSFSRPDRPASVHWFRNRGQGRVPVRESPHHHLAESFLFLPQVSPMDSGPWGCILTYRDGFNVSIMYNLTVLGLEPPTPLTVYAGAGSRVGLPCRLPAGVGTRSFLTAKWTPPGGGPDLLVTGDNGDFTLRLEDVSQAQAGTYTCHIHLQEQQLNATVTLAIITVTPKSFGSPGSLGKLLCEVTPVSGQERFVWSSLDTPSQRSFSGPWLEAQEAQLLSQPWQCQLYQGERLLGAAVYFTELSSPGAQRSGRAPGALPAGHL

T2: human LAG-3 expressed on cells (human, UniProt P18627 23-525)
T2 construct: whole, on cells; also called CD223
T2 sequence (looked up): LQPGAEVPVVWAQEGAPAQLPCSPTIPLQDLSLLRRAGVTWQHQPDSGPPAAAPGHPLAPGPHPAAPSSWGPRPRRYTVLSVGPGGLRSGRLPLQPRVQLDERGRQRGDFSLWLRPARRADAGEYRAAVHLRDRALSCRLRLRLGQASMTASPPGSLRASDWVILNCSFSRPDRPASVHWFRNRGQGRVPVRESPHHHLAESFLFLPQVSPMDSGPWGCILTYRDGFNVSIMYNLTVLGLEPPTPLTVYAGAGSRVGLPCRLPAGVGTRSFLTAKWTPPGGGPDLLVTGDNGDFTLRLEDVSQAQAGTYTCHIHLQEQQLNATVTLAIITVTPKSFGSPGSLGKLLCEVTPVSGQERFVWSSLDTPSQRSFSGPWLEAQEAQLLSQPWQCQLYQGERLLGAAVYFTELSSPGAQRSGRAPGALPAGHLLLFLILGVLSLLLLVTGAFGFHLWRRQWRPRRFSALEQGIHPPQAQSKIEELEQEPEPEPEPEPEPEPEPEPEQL

T3: human LAG-3 (human, UniProt P18627 23-450, limits assumed)
T3 construct: Selections used human LAG-3-Fc, human LAG-3-6His, a 30 aa LAG-3 peptide and/or cells with cynomolgus LAG-3; also called CD223
T3 sequence (looked up): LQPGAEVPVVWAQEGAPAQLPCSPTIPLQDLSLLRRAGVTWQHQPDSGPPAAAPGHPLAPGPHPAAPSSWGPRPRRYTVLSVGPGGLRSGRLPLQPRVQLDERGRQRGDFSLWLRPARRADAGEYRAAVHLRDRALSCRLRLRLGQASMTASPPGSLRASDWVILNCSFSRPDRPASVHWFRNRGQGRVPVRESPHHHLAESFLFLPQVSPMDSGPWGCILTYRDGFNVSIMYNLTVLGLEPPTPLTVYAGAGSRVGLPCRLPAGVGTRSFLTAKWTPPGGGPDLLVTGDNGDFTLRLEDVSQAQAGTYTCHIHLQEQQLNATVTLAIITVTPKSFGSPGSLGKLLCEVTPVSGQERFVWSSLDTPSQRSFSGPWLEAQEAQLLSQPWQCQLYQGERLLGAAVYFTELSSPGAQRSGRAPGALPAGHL


How the values were obtained:
recombinant human LAG-3 = molecular target: T1, recombinant human LAG-3; test: surface plasmon resonance (data not shown)
[1] = molecular target: T2, human LAG-3 expressed on cells; test: flow cytometry, 10 ug/ml antibody on SEA-activated primary human CD4+ T cells (FIG. 6A)
human LAG-3 = molecular target: T3, human LAG-3; test: Fab phage display selection; periplasmic extracts screened by ELISA or flow cytometry
Excerpt: Anti-LAG-3 antibodies were identified by generation and selection of an immunized Fab phage display library. […] Per mouse, a Fab library was then generated by random-primed cDNA using total RNA as a template to amplify variable regions from mouse antibody genes. Heavy and kappa chain amplicons were combined and cloned into phagemid vectors. […] The 30 amino acid human LAG-3 peptide is a biotinylated peptide comprising the amino acid sequence of […] (SEQ ID NO: 199). Periplasmic extracts of selected Fab clones were then screened by ELISA or flow cytometry. Antibody sequencing and off-rate analysis were then performed on anti-LAG-3 Fabs.

[2] = molecular target: T2, human LAG-3 expressed on cells; test: flow cytometry, Fab periplasmic extract on Jurkat cells expressing human LAG-3 (FIGS. 1A-1C)
Protocol: The anti-LAG-3 Fabs from periplasmic extracts were tested for binding to LAG-3-expressing cells using flow cytometry. Briefly, wild type and human LAG-3-expressing Jurkat cells were plated at 2×10⁵ cells/well in sample buffer (PBS (Gibco, Cat #10010-015)+0.5% FBS (Gibco, Cat #10270-106)) in 96-well U-bottom plates (Sarstedt). 22 μl of anti-LAG-3 Fab periplasmic extract and 83 μl of diluted anti-c-myc antibody (Gentaur, Clone #9E10, Cat #04-cmyc-9E10) were incubated for 30 minutes at room temperature. 100 μl of the periplasmic extract/anti-c-myc mixture was added to cells and then incubated for one hour on ice. Cells were washed three times and then incubated with a goat anti-mouse APC (BD Biosciences, Cat #550826) for 30 minutes on ice. Cells were washed three times and then analyzed with a FACS machine (BD Accuri6).

Binder	binding result (recombinant human LAG-3)	binding result [1]	binding result (human LAG-3)	binding result [2]
P13B02-06 (antibody, IgG1, V domains shown, Humanized; generated as full length IgG1; also called P13B02-06 (IgG1)) VH: QVQLVQSGAEVKKPGASVKVSCKASGFNIKDTYIHWVRQAPGQGLEWMGEIDPANDNTKYDPKFQGRVTITADTSTSTVYMELSSLRSEDTAVYYCATYYYRYDVGGFDYWGQGTLVTVSS VL: EIVLTQSPGTLSLSPGERATLSCSVSSSISSSNLHWYQQKPGQAPRLLIYGTSNLASGIPDRFSGSGSGTDFTLTISRLEPEDFAVYYCQQWSSYPFTFGQGTKVEIK	binds	binds		
P13B02-26 (antibody, IgG1, V domains shown, Humanized; VH is H4_R98K; generated as full length IgG1; also called P13B02-26 (IgG1)) VH: QVQMKQSGAEVVKPGASVKVSCTASGFNIKDTYIHWVRQAPGQGLEWIGEIDPANDNTKYDPKFQGRVTITADTSSNTVYLQLSSLRSEDTAVYYCATYYYKYDVGGFDYWGQGTLVTVSS VL: EILLTQSPGTLSLSPGERATLTCSVSSSISSSNLHWFQQKPGQSPRLWIYGTSNLASGVPDRFSGSGSGTSYTLTISRLEPEDFAVYYCQQWSSYPFTFGQGTKVEIK	binds	binds		
P13B02-27 (antibody, IgG1, V domains shown, Humanized; VH is H4_D100E; generated as full length IgG1; also called P13B02-27 (IgG1)) VH: QVQMKQSGAEVVKPGASVKVSCTASGFNIKDTYIHWVRQAPGQGLEWIGEIDPANDNTKYDPKFQGRVTITADTSSNTVYLQLSSLRSEDTAVYYCATYYYRYEVGGFDYWGQGTLVTVSS VL: EILLTQSPGTLSLSPGERATLTCSVSSSISSSNLHWFQQKPGQSPRLWIYGTSNLASGVPDRFSGSGSGTSYTLTISRLEPEDFAVYYCQQWSSYPFTFGQGTKVEIK	binds	binds		
P13B02-16 (antibody, IgG1, V domains shown, Humanized; generated as full length IgG1; also called P13B02-16 (IgG1)) VH: QVQMKQSGAEVKKPGASVKVSCTASGFNIKDTYIHWVRQAPGQGLEWMGEIDPANDNTKYDPKFQGRVTITADTSSNTVYMELSSLRSEDTAVYYCATYYYRYDVGGFDYWGQGTLVTVSS VL: EIVLTQSPGTLSLSPGERATLSCSVSSSISSSNLHWYQQKPGQAPRLLIYGTSNLASGIPDRFSGSGSGTDFTLTISRLEPEDFAVYYCQQWSSYPFTFGQGTKVEIK	binds	binds		
P13B02-30 (IgG4) (antibody, V domains shown) VH: QVQMVQSGAEVKKPGASVKVSCKASGFNIKDTYIHWVRQAPGQGLEWMGEIDPANDNTKYDPKFQGRVTITADTSTSTVYMELSSLRSEDTAVYYCATYYYKYDVGGFDYWGQGTLVTVSS VL: EIVLTQSPGTLSLSPGERATLSCSVSSSISSSNLHWYQQKPGQAPRLLIYGTSNLASGIPDRFSGSGSGTDFTLTISRLEPEDFAVYYCQQWSSYPFTFGQGTKVEIK		binds		
P13B02-30 (IgG1 G1m17 N297A) (antibody, V domains shown, Full length antibody containing IgG1 G1m17 allotype with a N297A mutation (EU)) VH: QVQMVQSGAEVKKPGASVKVSCKASGFNIKDTYIHWVRQAPGQGLEWMGEIDPANDNTKYDPKFQGRVTITADTSTSTVYMELSSLRSEDTAVYYCATYYYKYDVGGFDYWGQGTLVTVSS VL: EIVLTQSPGTLSLSPGERATLSCSVSSSISSSNLHWYQQKPGQAPRLLIYGTSNLASGIPDRFSGSGSGTDFTLTISRLEPEDFAVYYCQQWSSYPFTFGQGTKVEIK		binds		
P13B02-07 (antibody, IgG1, V domains shown, Humanized; generated as full length IgG1; also called P13B02-07 (IgG1)) VH: QVQLVQSGAEVKKPGASVKVSCKASGFNIKDTYIHWVRQAPGQGLEWMGEIDPANDNTKYDPKFQGRVTITADTSTSTVYMELSSLRSEDTAVYYCATYYYRYDVGGFDYWGQGTLVTVSS VL: EIVLTQSPGTLSLSPGERATLSCSVSSSISSSNLHWYQQKPGQAPRLLIYGTSNLASGIPDRFSGSGSGTSYTLTISRLEPEDFAVYYCQQWSSYPFTFGQGTKVEIK	binds	binds		
P13B02-25 (antibody, IgG1, V domains shown, Humanized; generated as full length IgG1; also called P13B02-25 (IgG1)) VH: QVQMKQSGAEVVKPGASVKVSCTASGFNIKDTYIHWVRQAPGQGLEWIGEIDPANDNTKYDPKFQGRVTITADTSSNTVYLQLSSLRSEDTAVYYCATYYYRYDVGGFDYWGQGTLVTVSS VL: EILLTQSPGTLSLSPGERATLTCSVSSSISSSNLHWFQQKPGQSPRLWIYGTSNLASGVPDRFSGSGSGTSYTLTISRLEPEDFAVYYCQQWSSYPFTFGQGTKVEIK	binds	binds		
full length chimeric anti-LAG-3 antibody P13B02 (antibody, V domains shown, Murine variable regions on human heavy (Ch1, Ch2, Ch3) and light (CL) constant regions; full-length IgG1 chimeric antibody; also called chimeric antibody P13B02 (IgG1)) VH: QVQMKQSGAELVKPGASVKLSCTASGFNIKDTYIHWVKQRPEQGLEWIGEIDPANDNTKYDPKFQGKATITADTSSNTAYLQLSSLTSEDTAVYYCATYYYRYDVGGFDYWGQGTTLTVS VL: EILLTQSPALMAASPGEKVTITCSVSSSISSSNLHWFQQKSGTSPKLWIYGTSNLASGVPVRFSGSGSGTSYSLTISSMEAEDAATYYCQQWSSYPFTFGSGTKLEIK		binds		
P13B03 Fab (Fab, V domains shown, Murine Fab, periplasmic extract) VH: EVQLQQSGAELVKPGASVKLSCTASGFNIKDTYIHWVKQRPEQGLEWIGEIDPANGNTKYDPKFQGKATITADTSSNTAYLQLSSLTSEDTAVYYCATYYYRYDVGGFDYWGQGTTLTVS VL: ENVLTQSPALMAASPGEKVTITCSVSSSISSSNLHWFQQKSGTSPKLWIYGTSNLASGVPVRFSGSGSGTSYSLTISSMEAEDAATYYCQQWSSYPFTFGSGTKLEIK			binds	binds
